Laboratory results published in publication PMC3947336.

Columns and labels:
[1] = molecular target: Bxz2 Int (mycobacteriophage Bxz2 serine-integrase, gene 34) (mycobacteriophage Bxz2); test: native gel or EMSA
[2] = molecular target: Bxz2 MBP-Int fusion protein (mycobacteriophage Bxz2); test: native gel or EMSA

Substance	stoichiometry N [1]	stoichiometry N [2]
Bxz2 Int (mycobacteriophage Bxz2 serine-integrase, gene 34) (enzyme)	2	–
Bxz2 MBP-Int fusion protein (enzyme)	–	2
